This is an account of results in patent US20230212319A1, “NOVEL ANTIGEN BINDING DOMAINS AND SYNTHETIC ANTIGEN RECEPTORS INCORPORATING THE SAME” (University of Southern California, priority 2020, published 2023).

What all share (format): cell-based
For experiment [1], the system named is RAJI cells. Briefly: JNG assay, co-culture with RAJI cells. The essentials: (§1)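 Jurkat NFAT-GFP (JNG) cells stably transduced with SARs by lentivirus, with drug selection where the construct carried a resistance gene, then co-cultured with target cells at E:T ~1:2 for ~4–18 h. % GFP-positive cells measured by FACS against parental JNG; +/- to 5+ correspond to ~5–50% GFP-positive.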

The test system of experiment [2] is SKOV-3 cells. Briefly: JNG assay, co-culture with SKOV-3 cells. The settings on record: co-culture with SKOV-3. As to the method: (§2) Cellular supernatant is collected and assayed for the induction of cytokines (e.g., IL2).
(§3) JNG (Jurkat cells expressing EGFP under an NFAT promoter) were infected with lentiviral vectors encoding different single chain and multi-chain SARs by spinfection in the presence of 8 µg/ml of Polybrene® (Sigma, Catalog no. H9268). The Jurkat-NFAT-GFP cells are engineered in such a way that the IL-2 promoter, which carries NFAT binding sites, is cloned upstream of the GFP gene. These cells have been used to study signaling via TCR and CAR. The different SARs were stably expressed in Jurkat NFAT-GFP cells by lentiviral mediated gene transfer, followed by selection with puromycin or blasticidin. No drug selection was used in case the construct lacked an antibiotic resistance gene. The SAR-expressing Jurkat-NFAT-GFP cells were cocultured with the target cells at E:T ratio of approximately 1:2 for approximately 4 hours to 18 hours. When the interaction between SIRs and their target antigen results in activation of the NFAT pathway, GFP expression is induced. […] GFP expression was monitored by FACS analysis. The Jurkat-NFAT-GFP (parental) cells were used as control. The structure of different constructs can be determined based on their names. […] The sequence of the other constructs in the table can be similarly determined from their names and by referring to the different Tables of this disclosure that provide the names and SEQ ID NO of the different modules. Alternatively, the composition and modular architecture of the different SAR constructs can be determined from their sequences by bioinformatics tools, including using nucleic acid and amino acids homology searches. A SAR is considered positive in the assay in case the SAR expressing Jurkat-NFAT-GFP cells show greater % GFP positive cells when cultured with the target cell line as compared to parental Jurkat-NFAT-GFP cells. […] In general, the number +/-, +, 2+, 3+, 4+, 5+ refer to approximately 5%, 10%, 20%, 30%, 40% and 50% GFP positive cells. The % of GFP induction in the above assay is dependent not only the relative strength of the SAR but also, among other factors, on the relative level of expression of the SAR in the JNG cells and the relative level of expression of the target antigen in the target cell line. To control for the difference in gene transduction efficiency of the different SAR constructs, the experiment was conducted with JNG cells transduced with SAR constructs co-expressing a drug resistance gene (e.g., puromycin or PAC) followed by drug selection to generate a stable population of SAR-expressing cells. It is to be noted that the drug resistance gene (e.g., PAC) in the SAR constructs is optional and in vivo studies were conducted with SAR constructs lacking the PAC gene.

The test system of experiment [3] is target antigen-expressing cell line. As to the kind of experiment: Jurkat NFAT-GFP (JNG) assay: induction of NFAT promoter driven GFP expression. The settings on record: SAR-expressing JNG cells co-cultured with cell lines expressing their target antigen(s). As to the method: Induction ofNFAT promoter driven GFP expression. […] Cellular supernatant is collected and assayed for the induction of cytokines (e.g., IL2).
as §2, §3

In experiment [4] the test system is RAJI-CD19-KO cells. Briefly: JNG assay, co-culture with RAJI-CD19-KO cells. The settings on record: co-culture with RAJI-CD19-KO cells. The essentials: as §1

B1: 22195 (protein)
chain: MALPVTALLLPLALLLHAARPDIQMTQSPSSLSASVGDRVTITCKASDHINNWLAWYQQKPGQAPKLLIYGATTLETGVPSRFSGSGSGTDYTLTISSLQPEDFATYYCQQSWNTPWTFGQGTKLEIKRLEDLKNVFPPEVAVFEPSEAEISHTQKATLVCLATGFYPDHVELSWWVNGKEVHSGVCTDPQPLKEQPALNDSRYCLSSRLRVSATFWQNPRNHFRCQVQFYGLSENDEWTQDRAKPVTQIVSAEAWGRADCGFTSESYQQGVLSATILYEILLGKATLYAVLVSALVLMAMVKRKDSRGRAKRSGSGATNFSLLKQAGDVEENPGPTSATMDWIWRILFLVGAATGAHSGPGSDLGIKLLFAAAKGQDDEVRILLAAGADVNAKDFEGYTPLHVAAYDGHLEIVEVLLKAGADVNAKDSQGRTPLHEAAYSGHLEIVEVLLKAGADVNAQDDAGETPADLAAAWGHEDIAEVLQKGSGGGGSGGGGSGGGGSFEQVQLQQPGAELVKPGASVKMSCKASGYAFSSYWINWMKQKPGQGLEWIGQIYPGDGDTNYNGKFKGRATLTADTSSSTAYMQLSSLTSEDSAVYFCARSITTVVGCAMDYWGQGTSVTVSSTRIQNPDPAVYQLRDSKSSDKSVCLFTDFDSQTNVSQSKDSDVYITDKCVLDMRSMDFKSNSAVAWSNKSDFACANAFNNSIIPEDTFFPSPESSCDVKLVEKSFETDTNLNFQNLSVIGFRILLLKVAGFNLLMTLRLWSSRAKRSGSGVKQTLNFDLLKLAGDVESNPGPSRGHMTEYKPTVRLATRDDVPRAVRTLAAAFADYPATRHTVDPDRHIERVTELQELFLTRVGLDIGKVWVADDGAAVAVWTTPESVEAGAVFAEIGPRMAELSGSRLAAQQQMEGLLAPHRPKEPAWFLATVGVSPDHQGKGLGSAVVLPGVEAAERAGVPAFLETSAPRNLPFYERLGFTVTADVEVPEGPRTWCMTRKPGA
As to B1, the “NFAT-GFP ASSAY: Raji” value in experiment [1] (JNG cells expressing construct, co-culture with Raji) was 4+ (refer to approximately 5%, 10%, 20%, 30%, 40% and 50% GFP positive cells). Besides, in experiment [2], the “NFAT-GFP ASSAY: SKOV-3” value was 4+ (refer to approximately 5%, 10%, 20%, 30%, 40% and 50% GFP positive cells).

B2: CD8SP-BCMA-FHVH-93-G4S-CD19-MOR0028-scFv-hCD8TM-BBZ-T2A-PAC (protein)
chain: MALPVTALLLPLALLLHAARPACEVQLLESGGGLIQPGGSLRLSCAASGFTFSSHAMTWVRQAPGKGLEWVSAISGSGDYTHYADSVKGRFTISRDNSKNTVYLQMNSLRAEDSAVYYCAKDEDGGSLLGHRGQGTLVTVSSGTGGGGSGGGGSGGGGSEFINIYNAEPANPSEKNSPEFDIVMTQSPATLSLSPGERATLSCRSSKSLQNVNGNTYLYWFQQKPGQSPQLLIYRMSNLNSGVPDRFSGSGSGTEFTLTISSLEPEDFAVYYCMQHLEYPITFGAGTKLEIKGGGGSGGGGSGGGGSEVQLVESGGGLVKPGGSLKLSCAASGYTFTSYVMHWVRQAPGKGLEWIGYINPYNDGTKYNEKFQGRVTISSDKSISTAYMELSSLRSEDTAMYYCARGTYYYGTRVFDYWGQGTLVTVSSTRTTTPAPRPPTPAPTIASQPLSLRPEACRPAAGGAVHTRGLDFACDIYIWAPLAGTCGVLLLSLVITLYCKRGRKKLLYIFKQPFMRPVQTTQEEDGCSCRFPEEEEGGCELRVKFSRSADAPAYQQGQNQLYNELNLGRREEYDVLDKRRGRDPEMGGKPRRKNPQEGLYNELQKDKMAEAYSEIGMKGERRRGKGHDGLYQGLSTATKDTYDALHMQALPPRSSGSGEGRGSLLTCGDVEENPGPHMTEYKPTVRLATRDDVPRAVRTLAAAFADYPATRHTVDPDRHIERVTELQELFLTRVGLDIGKVWVADDGAAVAVWTTPESVEAGAVFAEIGPRMAELSGSRLAAQQQMEGLLAPHRPKEPAWFLATVGVSPDHQGKGLGSAVVLPGVEAAERAGVPAFLETSAPRNLPFYERLGFTVTADVEVPEGPRTWCMTRKPGA
In the case of B2, the “GFP induction / activity in JNG assay” value in experiment [3] is reported as “effective GFP induction”. Besides, the “GFP induction / activity” value in experiment [1] (co-culture with RAJI cells) and in experiment [4] was “effective GFP induction” throughout.
